Measured values published in patent US20190352426A1, “PLAZOMICIN ANTIBODIES AND METHODS OF USE” (Achaogen, Inc., priority 2016, published 2019).

Assays:
Assay type in all cases: binding
[1] = competitive ELISA on BSA-bromo-plazomicin coated plates, free plazomicin; conditions: free plazomicin 0.013-270 μg/ml incubated with antibody at 0.05 nM, then added to BSA-bromo-plazomicin-coated ELISA plates
Description: (§1) The purified antibodies were then analyzed for binding to BSA-plazomicin by ELISA (the tested concentrations of antibodies ranged from 0.0001 nM to 100 nM). (FIG. 1A) and competitive ELISA (FIG. 1B) on BSA-bromo-plazomicin coated ELISA plates. For competitive ELISAs, free aminoglycosides (plazomicin, gentamicin, amikacin, and sisomicin) at concentrations; 270 μg/ml, 90 μg/ml 30 μg/ml, 10 μg/ml, 3.3 μg/ml, 1.1 μg/ml, 0.4 μg/ml, 0.12 μg/ml, 0.04 μg/ml and 0.013 μg/ml were incubated with one of 10 purified monoclonal antibodies derived from the cell cultures described above; MC329, MC330, MC331, MC332, MC334, […], […], MC337, MC339, MC340 at 0.05 nM concentration (FIG. 1B). The antibody/aminoglycoside solutions were then added to BSA-bromo-plazomicin-coated ELISA plates. Plates were washed to remove unbound antibody, and IC50 values (μg/mL) were determined for each aminoglycoside and are shown below in Table 5.

[2] = competitive ELISA on BSA-bromo-plazomicin coated plates, free sisomicin; conditions: free sisomicin 0.013-270 μg/ml incubated with antibody at 0.05 nM, then added to BSA-bromo-plazomicin-coated ELISA plates
Description: as §1

[3] = competitive ELISA on BSA-bromo-plazomicin coated plates, free gentamicin; conditions: free gentamicin 0.013-270 μg/ml incubated with antibody at 0.05 nM, then added to BSA-bromo-plazomicin-coated ELISA plates
Description: as §1

Row | Molecule | Antibiotic IC50 Values for Aminoglycosides: Plazomicin [1] [µg/mL] | Antibiotic IC50 Values for Aminoglycosides: Sisomicin [2] [µg/mL] | Antibiotic IC50 Values for Aminoglycosides: Gentamicin [3] [µg/mL]
1 | MC334: murine monoclonal anti-plazomicin antibody; heavy chain variable SEQ ID NO 58, light chain variable SEQ ID NO 62 (antibody, listed as Mus musculus, V domains shown) VH: QVQLQQSGAELMKPGASVKISCKATGYKFSRYWIEWVKESPGHGLEWIGEIFPGSDSTDYNEKFKGKATLTADSSSNTAYMQLSSLTSEDSAVYYCARDGGGLDEFAYWGQGTPVIVSA VL: DVVVTQIPLSLSVSFGDQVSISCRSSQSLTNSYGYTYLSWYLHKPGQSPQLLIYGISNRFSGVPDRFSGSGSGTDFTLKISTIKPEDLGMYYCLQGTHQPYTFGGGTKLEIR | 0.72 | – | –
2 | MC335: murine monoclonal anti-plazomicin antibody; heavy chain variable SEQ ID NO 66, light chain variable SEQ ID NO 70 (antibody, listed as Mus musculus, V domains shown) VH: AGQLKESGPGLVKPSQSLSLTCTVTGSSITSDYAWNWIRQFPGNKLEWMGYISQSGSTSYNPSLKSRISITRDTSKNQFFLQLNSVTTEDTATYYCTGNSYTMDYWGQGTSVTVSS VL: DIVMTQSPKFLLVSAGDRVTITCKASQSVSNDVAWYQQKPGQSPKLLISYASNRYTGVPDRFTGSGYGTDFTFTITTVQAEDLAVYFCQQDYSSPWTFGGGTKLEIK | 0.59 | 69.0 | –
3 | MC336: murine monoclonal anti-plazomicin antibody; heavy chain variable SEQ ID NO 74, light chain variable SEQ ID NO 78 (antibody, listed as Mus musculus, V domains shown) VH: QMQLQESGPGLVKPSQSLSLTCTVTGDSITSDYAWNWIRQFPGNKLEWMGYISYSGSTSYNPSLKSRISISRDTSKNQFFLQLNSVTIEDTATYYCTGNSYTMDYWGQGTSVTVSS VL: SIVMTQTPKFLLVSAGDRVTITCKASQSVSNDVAWYQQKPGQSPNLLISYASNRYTGVPDRFTGSGYGTDFTFTISTVQAEDLAVYFCQQDYISPWTFGGGTKLEIK | 0.25 | 37.6 | ~106.1
4 | MC337: murine monoclonal anti-plazomicin antibody; heavy chain variable SEQ ID NO 82, light chain variable SEQ ID NO 86 (antibody, listed as Mus musculus, V domains shown) VH: QVQLQQPGPELVKPGASVKMSCKASGYTFTSYVIHWVKQKPGQGLEWIGYINPFNDGTKYNEKFKGKATLTSDKSSSTAYMELSSLTSEDSAVYYCEGVGSSGSDYWGQGTTLTVSS VL: DIVMTQTPKFLLVSAGDRVTITCKASQSVRNDVAWYQQKPGQSPKLLISYASNRYTGVPDRFTGSGYGTDFTFTISTVQAEDLAIYFCQQDYSSPYTFGGGTKLEIK | 0.06 | 16.1 | 107.6
5 | MC339: murine monoclonal anti-plazomicin antibody; heavy chain variable SEQ ID NO 90, light chain variable SEQ ID NO 94 (antibody, listed as Mus musculus, V domains shown) VH: QVQLVQSGPELVKPGASVKVSCKASGFSFTDYNMYWVKQSHGKSLEWIGYIDPYNGGTSYNQKFKGKATLTFDKSSSTAFMHLNSLTSEDSAVYYCASAGNYDDYWGQGTTLTVSS VL: DIVMTQTPKFLLVSAGDRVTITCKASQSVSNDVAWYQQKPGQSPTLLIYYASNRYTGVPDRFTGSGYGTDFTFTISTVQAEDLAVYFCQQDYTSPYTFGGGTKLEIK | 0.12 | 24.4 | ~101.7
6 | MC340: murine monoclonal anti-plazomicin antibody; heavy chain variable SEQ ID NO 98, light chain variable SEQ ID NO 102 (antibody, listed as Mus musculus, V domains shown) VH: QVTLKESGGGLVQPGGSMKISCVVSGLTFRNYWMSWVRQSPEKGLEWVAEIRLKSDNYATHYAESVKGKFTISRDDSKSRLYLQMNSLRAEDTGIYYCTVYGKDFDYWGQGTTLTVSS VL: DVVMTQTPKFLLVSAGDRVTITCKASQSVSNDVAWYQQKPGQSPKLLISYASNRYTGVPDRFTGSGYGTDFTFTISTVQAEDLAVYFCQQDYSSPWTFGGGTKLEIK | 19.0 | 153 | –
7 | MC329: murine monoclonal anti-plazomicin antibody from hybridoma MC329; heavy chain variable SEQ ID NO 22, light chain SEQ ID NO 26, 30 (antibody, listed as Mus musculus, V domains shown) VH: SDVQLQESGPGLVKPSQSLSLTCTVTGYSITTNYAWNWIRQFPGHKLEWMGYITSSGRTSYNPPLKSRISITRDTSRSQFFLRLNSVTTEDTATYFCTHTTAYLDYWGQGTTLTVSS VL 1: SIVMTQTPKFLLVSAGDRVTITCKASQSVSNDVAWYQQKPGQSPKLLISYASNRYTGVPDRFTGSGYGTDFAFTINTVQAEDLAFYFCQQDYSSPYTFGGGTKLEIK VL 2: DIKMTQSPSSMYASLGERVTITCKASQDIKSYLSWYQQIPWKSPKTLIYYATSLADGVPSRFSGSGSGQDYSLTISSLESDDTATYYCLQHGESPLTFGAGTKLELK | 0.43 | 83.0 | 107.0
8 | MC330: murine monoclonal anti-plazomicin antibody; heavy chain variable SEQ ID NO 34, light chain variable SEQ ID NO 38 (antibody, listed as Mus musculus, V domains shown) VH: SDVQLQESGPGLVTPSQSLSLTCTVTGYSITSAYAWNWIRQFPGNKLEWLGYINSSGSTSYHPSLKGRISITRDTSKNQFFLQLNSVTTEDTATYYCTHTTSYFDYWGQGTTLTVSS VL: SIVMTQTPKFLIVSAGDRVTITCKASQSVSNDVAWYQQKPGQSPKLLISYASNRYTGVPDRFTGSGYGTDFTFAITTVQAEDLAVYFCQQDYSSPYTFGGGTKVEIK | 0.02 | 9.9 | 92.0
9 | MC331: murine monoclonal anti-plazomicin antibody; heavy chain variable SEQ ID NO 42, light chain variable SEQ ID NO 46 (antibody, listed as Mus musculus, V domains shown) VH: QVQLQQSGAELAKPGASVKMSCKASGNTFTSYWMHWIKQRPGQGLEWIGYIDPSTGYTEYNQKFKDRATLTADKSSNTAYMQLNSLTSEDSAVYYCTKSGKWDDYWGQGTTLTVSS VL: SIVMTQTPKFLLVSAGDRVTITCKASQSVTNDVAWYQQKPGQSPKLLICYASNRYTGVPDRFTGSGYGTDFTFTISTVQAEDLAVYFCQQDHTSPFTFGGGTKLEIK | 0.43 | 83.0 | 214.4
10 | MC332: murine monoclonal anti-plazomicin antibody; heavy chain variable SEQ ID NO 50, light chain variable SEQ ID NO 54 (antibody, listed as Mus musculus, V domains shown) VH: QVQLQQSGAELMKPGASVKISCKATGYKFSRYWIEWVKESPGHGLEWIGEIFPGSDSTDYNEKFKGKATLTADSSSNTAYMQLSSLTSEDSAVYYCARDGGGLDEFAYWGQGTPVIVSA VL: DVVVTQNPLSLSVSFGDQVSISCRSSQSLTNSYGYTYLSWYLHKPGQSPQLLIYGISNRFSGVPDRFSGSGSGTDFTLKISTIKPEDLGMYYCLQGTHQPYTFGGGTKLEIR | 0.94 | – | –
